Experimental data as given in patent US20150252107A1, “APLNR Modulators and Uses Thereof” (Regeneron Pharmaceuticals, Inc., priority 2013, published 2015).
Several values for one entry are separate records, joined by “and”; a condition that tells them apart may be missing. Identical values can stand only once. Entries after “also recorded” stand apart in the source; their conditions may differ.

T1: hAPLNR (Homo sapiens, UniProt P35414)
T1 construct: expressed in transfected cells
T1 sequence (P35414 1-380): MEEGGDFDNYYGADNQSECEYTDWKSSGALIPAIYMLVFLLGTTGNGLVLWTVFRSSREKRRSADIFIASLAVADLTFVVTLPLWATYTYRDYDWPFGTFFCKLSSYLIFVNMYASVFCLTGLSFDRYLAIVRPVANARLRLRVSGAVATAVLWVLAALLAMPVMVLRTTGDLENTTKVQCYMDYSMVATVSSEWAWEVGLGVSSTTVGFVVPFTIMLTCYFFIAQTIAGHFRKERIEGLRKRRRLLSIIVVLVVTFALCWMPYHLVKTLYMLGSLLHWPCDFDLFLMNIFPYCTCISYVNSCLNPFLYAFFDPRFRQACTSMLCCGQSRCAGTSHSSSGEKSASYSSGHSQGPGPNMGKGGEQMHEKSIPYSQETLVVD

T2: human APLNR (humanized APLNR mice) (Homo sapiens, UniProt P35414)
T2 construct: homozygous for expression of human APLNR in place of mouse APLNR (humanized APLNR mice); from tissue; host or cells: living humanized APLNR mouse pups (75% C57BL6 / 25% Sv129); read-out in the retina
T2 sequence (P35414 1-380): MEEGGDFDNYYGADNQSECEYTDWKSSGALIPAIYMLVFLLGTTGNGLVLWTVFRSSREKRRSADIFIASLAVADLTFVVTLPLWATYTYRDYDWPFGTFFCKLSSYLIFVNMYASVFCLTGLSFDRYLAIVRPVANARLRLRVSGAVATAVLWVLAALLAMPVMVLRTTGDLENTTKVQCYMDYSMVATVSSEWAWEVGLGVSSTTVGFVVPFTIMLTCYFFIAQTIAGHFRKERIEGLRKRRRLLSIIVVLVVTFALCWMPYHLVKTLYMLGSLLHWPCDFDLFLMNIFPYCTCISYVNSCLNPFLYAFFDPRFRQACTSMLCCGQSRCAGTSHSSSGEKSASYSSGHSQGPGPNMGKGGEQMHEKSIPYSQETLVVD


Key:
[1] = target: T1, hAPLNR; test: CRE assay of modified apelin peptides in HEK293/CRE-luc/hAPLNR cells; assay type: cell-based; conditions: Table 9; 5 μM forskolin
Description: After 5 hours of incubation at 37° C. in 5% CO2, luminescence was measured following the addition of One Glo reagent (Promega, #E6051) using a Victor X instrument (Perkin Elmer). The data were fit by nonlinear regression to a 4-parameter logistic equation with Prism 5 software (GraphPad).

[2] = tested on: HEK293 parental cells; test: FACS binding to HEK293 parental cells; conditions: 10 μg/mL antibody
Description: Binding ratios for human APLNR binding to purified anti-APLNR monoclonal antibodies were determined by a fluorescence-activated cell sorting (FACS) binding assay. […] The resulting stable cell lines, HEK293/CRE-luc/hAPLNR and HEK293/CRE-luc/MfAPLNR, were maintained in DMEM containing 10% FBS, NEAA, and penicillin/streptomycin with either 100 μg/mL Hygromycin B for hAPLNR cells or 500 μg/mL G418 for MfAPLNR cells.
For the FACS analysis, HEK293 parental, HEK293/CRE-luc/hAPLNR, and, HEK293/CRE-luc/mfAPLNR cells were dissociated using Enzyme Free Dissociation reagent (#S-004, Millipore, Billerica, Mass., USA) and 10^6 cells/well were plated onto 96-well v-bottom plates in PBS containing 1% FBS. […] Cells were then filtered and analyzed on Accuri Flow Cytometer (BD Biosciences, San Jose, Calif., USA). Unstained and secondary antibody alone controls were also tested for binding to all cell lines. […] Geometric mean (Geom. mean) of fluorescence for each antibody was then normalized to geometric mean of unstained cells to obtain relative binding of antibody (binding ratios) per each cell type: HEK293 (parental), HEK293/CRE-luc/hAPLNR and HEK293/CRE-luc/MfAPLNR.

[3] = target: T2, human APLNR (humanized APLNR mice); test: retinal vascular development (RVD) model in humanized APLNR mouse pups; assay type: in vivo
Description: To assess the in vivo characteristics of select anti-APLNR antibodies of the invention, their ability to block APLNR-mediated angiogenesis in the eye vasculature was measured.
A retinal vascular development (RVD) model was used to evaluate the effects of an antagonistic anti-APLNR antibody on blood vessel outgrowth in the normal developing retina of mouse pups that were of a mixed background strain (75% C57BL6 and 25% Sv129) and homozygous for expression of human APLNR in place of mouse APLNR (humanized APLNR mice). Pups were subcutaneously injected on postnatal day 2 (P2) with either 50 mg/kg of an anti-APLNR antagonist antibody, H2aM9232N, or an irrelevant human Fc (hFc) control. Reagents were masked and labeled as Solution A and Solution B to prevent experimenter bias. At postnatal day 5, tissue samples were collected and then fixed in PBS containing 4% paraformaldehyde. Fixed tissue samples were washed with PBS three times for 15 minutes, and subsequently stained with GS Lectin I (Vector Laboratories, #FL-1101) diluted 1:200 in 1×PBS containing 1% BSA in 0.25% Triton-X 100 overnight at 25° C. to visualize retinal vasculature. The following day, stained samples were rinsed with PBS three times for 15 minutes each, flat-mounted onto slides, and coverslips were subsequently mounted using Prolong Gold (Invitrogen, #P36930). Images were taken at 20 times magnification using an epi-fluorescent microscope (Nikon Eclipse 80). The vascularized areas in the retina were measured from acquired images from this assay using Adobe Photoshop CS6 extended. Statistical differences between the results obtained from the IgG control antibody and H2aM9232N treated samples were assessed using a two tailed, unpaired Student T-test (**, p<0.001). Only after retinal vasculature area measurements and statistical analysis were completed, the sample identities were unmasked.

[4] = target: T1, hAPLNR; test: cyclic AMP (CRE-luciferase) assay, activation of hAPLNR in HEK293/CRE-luc/hAPLNR cells; assay type: cell-based; conditions: % of maximum Apelin activation, without Apelin
Description: The ability of anti-APLNR antibodies to activate hAPLNR-mediated cell signaling was measured using a cyclic AMP assay. The hAPLNR is a 7-transmembrane G-protein coupled receptor (GPCR).
The resulting cell line, HEK293/CRE-luc/hAPLNR, was maintained in DMEM containing 10% FBS, NEAA, penicillin/streptomycin, and 100 μg/mL Hygromycin B.
Testing of antibodies included a no antibody control.
The results of all assays were analyzed using nonlinear regression (4-parameter logistics) within Prism 5 software (GraphPad).

EC50 [1] | Retinal blood vessel outgrowth (mm^2), MEAN ([3]; 50 mg/kg s.c. on postnatal day 2, read at postnatal day 5) | mean reduction in retinal blood vessel outgrowth compared to control (hFc) ([3]; single s.c. injection 50 mg/kg, postnatal day 5) | % Activation at 100 nM mAb (at 10 uM Forskolin) ([4]; Table 6A) | Molecule | Binding Ratio of Geom. Mean to Unstained Cells, HEK293 Parental [2] | Retinal blood vessel outgrowth (mm^2), individual eye ([3]; 50 mg/kg s.c. on postnatal day 2, read at postnatal day 5, single eyes (OD/OS)) | % Activation at 500 nM mAb (at […] Forskolin) ([4]; Table 6B)
0.147 nM |  |  |  | CSCC[C@H](NC(=O)[C@@H]1CCCN1C(=O)CNC(=O)[C@H](CCCCN)NC(=O)[C@H](Cc1c[nH]cn1)NC(=O)[C@H](CO)NC(=O)[C@H](CC(C)C)NC(=O)[C@H](CCCNC(=N)N)NC(=O)[C@@H]1CCCN1C(=O)[C@H](CCCNC(=N)N)NC(=O)[C@@H](N)CCC(N)=O)C(=O)N1CCC[C@H]1C(=O)N[C@@H](Cc1ccccc1)C(=O)NCC(=O)NCC(=O)NCC(=O)NCC(=O)NCC(=O)O [Apelin-13 + 5G] |  |  | 
 | 2.84 mm^2 | approximately 30% | No Activation | H2aM9232N: antagonistic anti-APLNR antibody, HCVR/LCVR SEQ ID NOs 98/106, mouse IgG2a Fc (antibody, V domains shown, mouse IgG2a Fc) VH: QVKLVESGGGVVQPGRSLRLSCAASGFTFSNYVIHWVRQAPGKGLEWVAVIWYDGSNKYYADSVKGRFTISRDNSKNTLYLQMNSLRAEDTAVYYCARDRVVRGVDYYYYYGLDVWGQGTSVTVSS VL: EIVMTQSPATLSVSPGERATLSCRASQSVRSNLAWYQQKPGQAPRLLIYGASSRATGIPARFSGTGSGTEFTLTISSLQSDDFAVYYCQQYNKWPRTFGQGTKVEIK | 6 | 2.49 mm^2 and 3.04 mm^2 and 3.57 mm^2 and 3.32 mm^2 and 2.23 mm^2 and 2.36 mm^2 | did not demonstrate any measurable activation; also recorded: No Activation
